Results from article PMC5377818 (The Journal of Biological Chemistry, 2017).

B1: Influenza A/WSN/33 virus M2 protein made in infected cells (natural protein)
chain: MSLLTEVETPIRNEWGCRCNDSSDPLVIAANIIGILHLILWILDRLFFKCIYRRFKYGLKRGPSTEGVPESMREEYRKEQQNAVDVDDGHFVNIELE

Assays:
[1] = target: FLAG-tagged influenza A virus M2 protein (influenza A virus (strain not stated)) (UniProt P05780); experiment: co-IP
[2] = target: c-Myc-tagged cyclin D1 (UniProt P24385 1-295); experiment: co-IP; details: partners not purified
c-Myc-tagged cyclin D1, sequence (P24385 whole entry): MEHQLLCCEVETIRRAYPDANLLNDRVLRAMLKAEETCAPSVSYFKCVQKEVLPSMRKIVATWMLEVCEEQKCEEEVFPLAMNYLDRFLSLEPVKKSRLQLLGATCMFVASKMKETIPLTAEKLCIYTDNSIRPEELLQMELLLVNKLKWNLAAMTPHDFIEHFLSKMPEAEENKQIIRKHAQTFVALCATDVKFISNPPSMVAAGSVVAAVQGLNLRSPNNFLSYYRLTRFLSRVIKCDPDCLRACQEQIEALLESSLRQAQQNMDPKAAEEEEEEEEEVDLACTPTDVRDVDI

Row | Molecule | percent reduction of M1 co-precipitated with M2 [1] | M2 co-precipitated, relative to cyclin D3 [2]
1 | FLAG- and c-Myc-tagged human cyclin D3 (from UniProt P30281-1 1-292) (natural protein) | 70% | 
2 | B1 |  | ~50%
